Laboratory results as given in the RNAGym collection of RNA variant scans (doi:10.1093/molbev/msab373).

B1: Azoarcus group I ribozyme (parent)
chain: GUGCCUUGCGCCGGGAAACCACGCAAGGGAUGGUGUCAAAUUCGGCGAAACCUAAGCGCCCGCCCGGGCGUAUGGCAACGCCGAGCCAAGCUUCGGCGCCUGCGCCGAUGAAGGUGUAGAGACUAGACGGCACCCACCUAAGGCAAACGCUAUGGUGAAGGCAUAGUCCAGGGAGUGGCGAAAGUCACACAAACCGG

Variants of: B1
Assay: reverse-splicing fitness (ratio to wild type); higher = more active; in vitro selection; Mg2+ level not given
In short: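 An in vitro group I ribozyme library with randomized positions was T7-transcribed and gel-purified. In triplicate, 10 pmol RNA in EPPS pH 7.5 was reacted with 50 pmoles of a 30-nt RNA substrate for 1 h at 37 °C across several added MgCl2 levels (1–48 mM), then stopped with EDTA. Products were reverse transcribed from a substrate-complementary primer, PCR-amplified and sequenced (HiSeq 4000). Fitness is a variant's read proportion after selection over that before, normalised to wild type.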

| Variant | reverse-splicing fitness |
| --- | --- |
| A120U A145U C150A C169U U176G | 0.00399 |
| A120U A145U C150A U176A | 0.151 |
| A120U A145U C150A U176C | 0.141 |
| A120U A145U C150A U176G | 0.0665 |
| A120U A145U C150G | 0.267 |
| A120U A145U C150G C169A | 0.00425 |
| A120U A145U C150G C169A U176A | 0.00344 |
| A120U A145U C150G C169A U176C | 0.00335 |
| A120U A145U C150G C169A U176G | 0.00241 |
| A120U A145U C150G C169G | 0.0307 |
| A120U A145U C150G C169G U176A | 0.00507 |
| A120U A145U C150G C169G U176C | 0.00304 |
| A120U A145U C150G C169G U176G | 0.00208 |
| A120U A145U C150G C169U | 0.0429 |
| A120U A145U C150G C169U U176A | 0.00679 |
| A120U A145U C150G C169U U176C | 0.0175 |
| A120U A145U C150G C169U U176G | 0.00288 |
| A120U A145U C150G U176A | 0.122 |
| A120U A145U C150G U176C | 0.148 |
| A120U A145U C150G U176G | 0.018 |
| A120U A145U C150U | 0.785 |
| A120U A145U C150U C169A | 0.0103 |
| A120U A145U C150U C169A U176A | 0.00335 |
| A120U A145U C150U C169A U176C | 0.00496 |

| Variant | reverse-splicing fitness |
| --- | --- |
| A120U A145U C150U C169A U176G | 0.00234 |
| A120U A145U C150U C169G | 0.166 |
| A120U A145U C150U C169G U176A | 0.0285 |
| A120U A145U C150U C169G U176C | 0.0637 |
| A120U A145U C150U C169G U176G | 0.00311 |
| A120U A145U C150U C169U | 0.197 |
| A120U A145U C150U C169U U176A | 0.059 |
| A120U A145U C150U C169U U176C | 0.0952 |
| A120U A145U C150U C169U U176G | 0.00903 |
| A120U A145U C150U U176A | 0.608 |
| A120U A145U C150U U176C | 0.552 |
| A120U A145U C150U U176G | 0.206 |
| A120U A145U C169A | 0.0173 |
| A120U A145U C169A U176A | 0.00339 |
| A120U A145U C169A U176C | 0.00507 |
| A120U A145U C169A U176G | 0.00158 |
| A120U A145U C169G | 0.256 |
| A120U A145U C169G U176A | 0.0356 |
| A120U A145U C169G U176C | 0.0807 |
| A120U A145U C169G U176G | 0.00322 |
| A120U A145U C169U | 0.261 |
| A120U A145U C169U U176A | 0.0858 |
| A120U A145U C169U U176C | 0.133 |
| A120U A145U C169U U176G | 0.0134 |

| Variant | reverse-splicing fitness |
| --- | --- |
| A120U A145U U176A | 0.681 |
| A120U A145U U176C | 0.642 |
| A120U A145U U176G | 0.328 |
| A120U C150A | 0.245 |
| A120U C150A C169A | 0.00484 |
| A120U C150A C169A U176A | 0.00376 |
| A120U C150A C169A U176C | 0.00333 |
| A120U C150A C169A U176G | 0.00205 |
| A120U C150A C169G | 0.0291 |
| A120U C150A C169G U176A | 0.0106 |
| A120U C150A C169G U176C | 0.0141 |
| A120U C150A C169G U176G | 0.00249 |
| A120U C150A C169U | 0.038 |
| A120U C150A C169U U176A | 0.0178 |
| A120U C150A C169U U176C | 0.0195 |
| A120U C150A C169U U176G | 0.00432 |
| A120U C150A U176A | 0.178 |
| A120U C150A U176C | 0.172 |
| A120U C150A U176G | 0.0831 |
| A120U C150G | 0.206 |
| A120U C150G C169A | 0.00834 |
| A120U C150G C169A U176A | 0.00468 |
| A120U C150G C169A U176C | 0.00332 |
| A120U C150G C169A U176G | 0.00242 |

| Variant | reverse-splicing fitness |
| --- | --- |
| A120U C150G C169G | 0.0252 |
| A120U C150G C169G U176A | 0.00487 |
| A120U C150G C169G U176C | 0.0024 |
| A120U C150G C169G U176G | 0.00248 |
| A120U C150G C169U | 0.0339 |
| A120U C150G C169U U176A | 0.00472 |
| A120U C150G C169U U176C | 0.0154 |
| A120U C150G C169U U176G | 0.00276 |
| A120U C150G U176A | 0.0739 |
| A120U C150G U176C | 0.115 |
| A120U C150G U176G | 0.0108 |
| A120U C150U | 0.774 |
| A120U C150U C169A | 0.0111 |
| A120U C150U C169A U176A | 0.0051 |
| A120U C150U C169A U176C | 0.00368 |
| A120U C150U C169A U176G | 0.00183 |
| A120U C150U C169G | 0.15 |
| A120U C150U C169G U176A | 0.0257 |
| A120U C150U C169G U176C | 0.0569 |
| A120U C150U C169G U176G | 0.00278 |
| A120U C150U C169U | 0.203 |
| A120U C150U C169U U176A | 0.0605 |
| A120U C150U C169U U176C | 0.083 |
| A120U C150U C169U U176G | 0.00872 |

| Variant | reverse-splicing fitness |
| --- | --- |
| A120U C150U U176A | 0.62 |
| A120U C150U U176C | 0.556 |
| A120U C150U U176G | 0.222 |
| A120U C169A | 0.0174 |
| A120U C169A U176A | 0.00399 |
| A120U C169A U176C | 0.00594 |
| A120U C169A U176G | 0.00204 |
| A120U C169G | 0.262 |
| A120U C169G U176A | 0.0354 |
| A120U C169G U176C | 0.0915 |
| A120U C169G U176G | 0.00332 |
| A120U C169U | 0.257 |
| A120U C169U U176A | 0.0922 |
| A120U C169U U176C | 0.139 |
| A120U C169U U176G | 0.0138 |
| A120U U176A | 0.66 |
| A120U U176C | 0.678 |
| A120U U176G | 0.421 |
| A145C | 0.95 |
| A145C C150A | 0.321 |
| A145C C150A C169A | 0.0125 |
| A145C C150A C169A U176A | 0.0107 |
| A145C C150A C169A U176C | 0.00805 |
| A145C C150A C169A U176G | 0.00533 |

| Variant | reverse-splicing fitness |
| --- | --- |
| A145C C150A C169G | 0.0208 |
| A145C C150A C169G U176A | 0.0271 |
| A145C C150A C169G U176C | 0.0203 |
| A145C C150A C169G U176G | 0.00531 |
| A145C C150A C169U | 0.0286 |
| A145C C150A C169U U176A | 0.023 |
| A145C C150A C169U U176C | 0.0218 |
| A145C C150A C169U U176G | 0.00589 |
| A145C C150A U176A | 0.217 |
| A145C C150A U176C | 0.206 |
| A145C C150A U176G | 0.14 |
| A145C C150G | 0.525 |
| A145C C150G C169A | 0.0221 |
| A145C C150G C169A U176A | 0.00984 |
| A145C C150G C169A U176C | 0.0118 |
| A145C C150G C169A U176G | 0.00491 |
| A145C C150G C169G | 0.0445 |
| A145C C150G C169G U176A | 0.0135 |
| A145C C150G C169G U176C | 0.00959 |
| A145C C150G C169G U176G | 0.00537 |
| A145C C150G C169U | 0.0739 |
| A145C C150G C169U U176A | 0.0183 |
| A145C C150G C169U U176C | 0.0427 |
| A145C C150G C169U U176G | 0.00549 |

| Variant | reverse-splicing fitness |
| --- | --- |
| A145C C150G U176A | 0.364 |
| A145C C150G U176C | 0.388 |
| A145C C150G U176G | 0.114 |
| A145C C150U | 0.695 |
| A145C C150U C169A | 0.0428 |
| A145C C150U C169A U176A | 0.0158 |
| A145C C150U C169A U176C | 0.0196 |
| A145C C150U C169A U176G | 0.00607 |
| A145C C150U C169G | 0.0825 |
| A145C C150U C169G U176A | 0.0403 |
| A145C C150U C169G U176C | 0.0444 |
| A145C C150U C169G U176G | 0.00658 |
| A145C C150U C169U | 0.122 |
| A145C C150U C169U U176A | 0.0513 |
| A145C C150U C169U U176C | 0.0741 |
| A145C C150U C169U U176G | 0.00838 |
| A145C C150U U176A | 0.613 |
| A145C C150U U176C | 0.596 |
| A145C C150U U176G | 0.308 |
| A145C C169A | 0.167 |
| A145C C169A U176A | 0.029 |
| A145C C169A U176C | 0.05 |
| A145C C169A U176G | 0.00461 |
